Measured values published in patent US20180030151A1 (MOGAM INSTITUTE FOR BIOMEDICAL RESEARCH, published 2018).

Biological target: T1, recombinant human TFPI (tissue factor pathway inhibitor) (human, UniProt P10646 29-304)
T1 construct: Biotin-conjugated in the yeast FACS; also called hTFPI; TFPI antigen
Test: ELISA of phage-library Fab supernatants on TFPI-coated plate
Method: Single colonies were collected from the finally amplified library, and then cultured in 1.5 mL of SB/carbenicillin at 37° C. at 220 rpm until an OD600 of about 0.8-1.0 was reached, followed by incubation with 1 mM IPTG at 30° C. at 200 rpm for 12 hours. Next, the cells were centrifuged at 5500 rpm for 5 minutes, and the supernatant was added to a TFPI antigen-coated ELISA plate, incubated at room temperature for 2 hours, and then washed four times with PBST (1×PBS, 0.05% tween 20). Next, a 1:5000 dilution of an HRP/anti-hFab-HRP conjugate (CAT. No. A0293, Sigma) with 1% BSA/1×PBS was added to the cells, after which the cells were incubated at room temperature for 1 hour and washed four times with PBST (1×PBS, 0.05% tween 20). Then, the cells treated with a TMB solution for 5-10 minutes, and a TMB stop solution was added to the cells. Next, the absorbance at a wavelength of 450 nm was measured using the TECAN sunrise, and clones having high O. D values were selected as individual clones.

B1: clone A52 (antibody, V domains shown)
VH: EVQLVESGGGLVKPGGSLRLSCAASGFTFSSYAMNWVRQAPGKGLEWVSTITTGGSHTYYADSVDGRFTISRDNAKNSLYLQMNSLRAEDTAVYYCARQDGNFLMDYWGQGTLVTVSS
VL: DVVMTQTPLSLPVTLGQPASISCKSSQSLLDIDGKTYLNWLQQRPGQSPKRLIYLVSKLDSGVPDRFTGSGSGTDFTLKISRVEAEDVGVYYCWQGTHFPFTFGQGTKVEIKR
notes: Fab from phage library at selection; human IgG4/kappa IgG as purified
- binding result: binds

B2: clone A71 (antibody, V domains shown)
VH: EVQLVESGGGLVKPGGSLRLSCAASGFTFSSYAMNWVRQAPGKGLEWVSTITTGGSYTYYADSVHGRFTISRDNAKNSLYLQMNSLRAEDTAVYYCARQDGNFLMDYWGQGTLVTVSS
VL: DVVMTQTPLSLPVTLGQPASISCKSSQSLLDTDGKTYLNWLQQRPGQSPKRLIYLVSKLDSGVPDRFTGSGSGTDFTLKISRVEAEDVGVYYCWQGTHFPFTFGQGTKVEIKR
notes: as for B1
- binding result: binds

B3: clone A74 (antibody, V domains shown)
VH: EVQLVESGGGLVKPGGSLRLSCAASGFTFSSYAMHWVRQAPGKGLEWVSTITTGGSYTYYADSVQGRFTISRDNAKNSLYLQMNSLRAEDTAVYYCARQDGNFLMDYWGQGTLVTVSS
VL: DVVMTQTPLSLPVTLGQPASISCKSSQSLLDIDGKTYLNWLQQRPGQSPKRLIYLVSKLDSGVPDRFTGSGSGTDFTLKISRVEAEDVGVYYCWQGTHFPFTFGQGTKVEIKR
notes: as for B1
- binding result: binds
